Test results taken from patent publication US20110124565.

Tested on: FVIII L99 (B domain deleted FVIII with R372A and Val374 replaced by a 99 amino acid Gly/Ser linker)

human activated Protein C
remaining FVIII activity (FXa generation test) after addition of human APC with or without protein S: FVIII L99 could be inactivated by human APC with or without Protein S
